Where no end group is shown, it is not given here.
target: monoclonal antibody mAB 198; test: peptide microarray, fluorescence, cyclic peptide

Binder | relative signal [%]
RIRWNPADY (also: cyclic peptide, ring type and places not given here) | 11.5
GGSLRFNPADY (also: cyclic peptide, mode of cyclisation not given here) | 14.5
VRLRRNPAD (also: cyclic peptide, mode of cyclisation not given here) | 14.7
RLYWNPADY (also: cyclic peptide, ring type and places not given here) | 13.7
RVNPADY (also: cyclic peptide, ring type and places not given here) [RVNPADY, cyclic mimotope] | 18.7
RPNPADYGG (also: cyclic peptide, ring type and places not given here) | 11.9
RLRFNPADY (also: cyclic peptide, ring type and places not given here) | 21.3
RYNPADY (also: cyclic peptide, ring type and places not given here) [RYNPADY, cyclic mimotope] | 20.2
RANPADY (also: cyclic peptide, ring type and places not given here) [RANPADY, cyclic mimotope] | 12.2
GSLRWNPADYR (also: cyclic peptide, mode of cyclisation not given here) | 16.2
NPADYGD (also: cyclic peptide, mode of cyclisation not given here) [NPADYGD, cyclic mimotope] | 12.6
NPADYGY (also: cyclic peptide, ring type and places not given here) [NPADYGY, cyclic mimotope] | 11.8
RWNPADR (also: cyclic peptide, ring type and places not given here) [RWNPADR, cyclic mimotope] | 11
VNPADYG (also: cyclic peptide, mode of cyclisation not given here) [VNPADYG, cyclic mimotope] | 12.5
VRLRVNPADYG (also: cyclic peptide, mode of cyclisation not given here) | 13.4
RTNPADY (also: cyclic peptide, ring type and places not given here) [RTNPADY, cyclic mimotope] | 14.6
GSLRWNPADYP (also: cyclic peptide, mode of cyclisation not given here) | 12.4

Binder | relative signal [%]
GGGSLRRNPAD (also: cyclic peptide, mode of cyclisation not given here) | 12.5
RPNPADY (also: cyclic peptide, ring type and places not given here) [RPNPADY, cyclic mimotope] | 15.6
NPADYGH (also: cyclic peptide, mode of cyclisation not given here) [NPADYGH, cyclic mimotope] | 15.8
GSLRINPADYG (also: cyclic peptide, mode of cyclisation not given here) | 12.1
GNPADYGGI (also: cyclic peptide, mode of cyclisation not given here) | 13.7
DVRLRPNPADY (also: cyclic peptide, mode of cyclisation not given here) | 21.3
LRWNPADYP (also: cyclic peptide, mode of cyclisation not given here) | 13.1
SLRFNPADY (also: cyclic peptide, ring type and places not given here) | 13.6
SLRGNPADY (also: cyclic peptide, ring type and places not given here) | 15.4
ALRWNPADY (also: cyclic peptide, mode of cyclization not given here) | 11.5
SLRYNPADY (also: cyclic peptide, mode of cyclisation not given here) | 12.2
WNPADYP (also: cyclic peptide, mode of cyclisation not given here) [WNPADYP, cyclic mimotope] | 21.1
NPADYGR (also: cyclic peptide, ring type and places not given here) [NPADYGR, cyclic mimotope] | 19.5
GGSLRGNPADY (also: cyclic peptide, mode of cyclisation not given here) | 19.6
RPRWNPADY (also: cyclic peptide, ring type and places not given here) | 12.4
GGSLRYNPADY (also: cyclic peptide, mode of cyclisation not given here) | 11.5

Reference: patent US20230381328A1, “COMPOUND FOR THE PREVENTION OR TREATMENT OF MYASTHENIA GRAVIS” (ABLEVIA BIOTECH GMBH, priority 2020, published 2023)
